Drawing on article PMC11573651, this text covers stoichiometry N for 1 substance.

The experiment deals with His-NifH^RS (Roseiflexus sp. RS-1 dinitrogenase reductase NifH) (Roseiflexus sp. RS-1). The experiment can be described thus: not stated; molecular size and quaternary structure of the purified protein (Table 1); the method is in SI Appendix Figs. S8, S9, S14 and S15.

As usually defined, the stoichiometry N is the number of molecules, sites or subunits per partner or assembly. “His-NifH^RS (Roseiflexus sp. RS-1 dinitrogenase reductase NifH) (natural protein)” came in with a stoichiometry N of 2.
